Columns and labels:
[1] = target: T1, complement receptor-2 (CR2) on the surface of Raji cells (UniProt P20023 21-1033, limits assumed); test: competitive binding on Raji cells against 1 nM 125I-HEL-C3d, 1 h at 4 C, cell-pellet radioactivity
T1 construct: whole, on cells; also called CD21; complement receptor type 2
T1 sequence (looked up): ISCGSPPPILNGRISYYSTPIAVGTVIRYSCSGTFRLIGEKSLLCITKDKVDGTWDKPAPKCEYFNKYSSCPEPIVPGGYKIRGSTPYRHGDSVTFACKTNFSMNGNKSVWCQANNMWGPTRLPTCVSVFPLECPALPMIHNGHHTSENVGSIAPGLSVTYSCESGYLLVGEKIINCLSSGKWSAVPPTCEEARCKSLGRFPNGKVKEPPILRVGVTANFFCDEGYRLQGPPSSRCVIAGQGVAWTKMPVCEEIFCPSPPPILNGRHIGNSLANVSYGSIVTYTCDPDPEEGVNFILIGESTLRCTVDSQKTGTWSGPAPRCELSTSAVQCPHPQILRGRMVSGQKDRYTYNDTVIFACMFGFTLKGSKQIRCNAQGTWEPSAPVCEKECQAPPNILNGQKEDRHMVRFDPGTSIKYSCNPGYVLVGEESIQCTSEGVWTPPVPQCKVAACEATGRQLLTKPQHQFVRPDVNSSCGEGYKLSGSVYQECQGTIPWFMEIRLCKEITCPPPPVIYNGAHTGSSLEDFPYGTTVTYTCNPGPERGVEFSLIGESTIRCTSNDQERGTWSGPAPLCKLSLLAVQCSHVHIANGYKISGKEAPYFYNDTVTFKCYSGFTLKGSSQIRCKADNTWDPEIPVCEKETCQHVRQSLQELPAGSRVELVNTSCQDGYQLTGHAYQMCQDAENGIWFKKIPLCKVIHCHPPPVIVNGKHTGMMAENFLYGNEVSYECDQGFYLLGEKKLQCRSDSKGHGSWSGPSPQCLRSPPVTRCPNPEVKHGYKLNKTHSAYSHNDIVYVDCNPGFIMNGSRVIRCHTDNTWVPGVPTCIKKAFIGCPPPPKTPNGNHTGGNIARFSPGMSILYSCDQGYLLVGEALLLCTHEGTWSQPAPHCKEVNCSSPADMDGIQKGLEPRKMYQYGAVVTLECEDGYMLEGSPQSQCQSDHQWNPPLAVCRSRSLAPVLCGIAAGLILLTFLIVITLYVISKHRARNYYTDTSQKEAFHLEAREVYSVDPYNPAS
Experimental: The cells are then centrifuged through a dibutyl-diiso-octyl-phthalate cushion, and the amount of radioactivity associated with the pellet determined.
The binding was performed as described in General Methods Section (xvii) (a).

co-ligated CR2.IgG1 = target: T2, co-ligated CR2.IgG1; test: competitive ELISA: plate-bound C3d, 125 pM CR2.IgG1, soluble C3d titrated, HRP anti-mouse IgG1 detection
T2 construct: also called CR2; IgGl
Experimental: C3d is used to coat 96-well microtitre plates at 5 µg/ml in O. 1M NaHCO_3 by incubating overnight at 4° C. The plates are then blocked in 1% BSA 0.1% Tween-20 in PBS for 1 h at room temperature subsequently they are incubated with either 25 µl/well of C3d or from the C3d containing molecule under test in a dose response manner. To the wells is added 25 µl/well of a sub-saturating concentration of co-ligated CR2. […] The plates are then washed three times with PBS containing 0.1% (v/v) Tween-20. The amount of CR2 bound to the immobilised C3d is detected using a 1:3000 dilution of HRP-labeled goat anti-mouse-IgGl-antibody in PBS containing 0.1% (v/v)Tween-20 and incubated for 1 h at room temperature the wells were then washed as described above. The presence of HRP-antibody is detected using the TMB Peroxidase EIA Substrate Kit according to the manufacturer's instructions (Bio-Rad, UK).
The ELISA was performed as described in General Methods Section (xvii) (b). The monomer gave a $I50$ of 2 µM for the baculovirus/Sf9 material. A similar figure was obtained for the COS cell produced C3d.

B1: C3d expressed in COS cells (ligand)
chain: not shown
notes: domain: C3d; Comparator material; also called COS cell produced C3d
[1]
  IC50: 2500 nM

B2: C3d monomer produced in baculovirus/Sf9 cells (murine C3d with C-terminal Glu-Glu-Phe tag) (ligand)
chain: not shown
notes: The end residue 330 was counted from the printed appendix (33 rows of 10 residues); Measured mass 34279 Da; also called baculovirus/Sf9 C3d; C3d1
[1]
  IC50: 2500 nM
co-ligated CR2.IgG1
  IC50: 2000 nM
